Measurements: IntAct's records for PubMed 20543817
One block for each substance: values may come before it.

Key:
[1] = biological target: Nlgn1, Q62765-2
[2] = biological target: nlgnx_human NLGN4X (UniProt Q8N0W4)
[3] = biological target: nlgnx_human NLGN4X (UniProt Q8N0W4); remark: listed apart in the source
[4] = biological target: Nlgn1, Q62765-2; remark: listed apart in the source
[5] = biological target: Nlgn1, Q62765-2; remark: listed apart in the source
[6] = biological target: nlgnx_human NLGN4X (UniProt Q8N0W4); remark: listed apart in the source
[7] = biological target: Nlgn1, Q62765-2; remark: listed apart in the source
[8] = biological target: nlgnx_human NLGN4X (UniProt Q8N0W4); remark: listed apart in the source

Sequence of Nlgn1, Q62765-2 (Q62765 other isoform, or with tags, fused parts or gaps): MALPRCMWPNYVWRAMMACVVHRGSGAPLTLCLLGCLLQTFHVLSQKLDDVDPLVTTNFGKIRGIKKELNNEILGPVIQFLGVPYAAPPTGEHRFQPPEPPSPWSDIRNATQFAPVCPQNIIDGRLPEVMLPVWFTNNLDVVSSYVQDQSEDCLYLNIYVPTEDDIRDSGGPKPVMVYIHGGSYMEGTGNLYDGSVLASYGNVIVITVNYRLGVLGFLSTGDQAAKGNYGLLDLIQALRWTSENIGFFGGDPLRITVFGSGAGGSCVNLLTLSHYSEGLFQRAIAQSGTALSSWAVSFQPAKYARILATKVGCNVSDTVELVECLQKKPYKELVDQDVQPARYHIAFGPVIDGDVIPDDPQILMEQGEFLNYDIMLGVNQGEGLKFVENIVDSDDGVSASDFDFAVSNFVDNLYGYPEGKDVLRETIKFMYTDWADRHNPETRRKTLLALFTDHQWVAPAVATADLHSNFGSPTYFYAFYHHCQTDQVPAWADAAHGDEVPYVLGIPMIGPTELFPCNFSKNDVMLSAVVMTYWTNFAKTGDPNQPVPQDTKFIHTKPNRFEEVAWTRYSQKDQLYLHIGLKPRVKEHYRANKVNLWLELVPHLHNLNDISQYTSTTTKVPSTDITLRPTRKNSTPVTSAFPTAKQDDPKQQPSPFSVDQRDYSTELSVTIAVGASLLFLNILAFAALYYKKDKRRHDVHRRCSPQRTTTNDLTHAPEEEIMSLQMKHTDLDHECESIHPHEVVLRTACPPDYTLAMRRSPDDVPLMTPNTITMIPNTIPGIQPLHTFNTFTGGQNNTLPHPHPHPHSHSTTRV
Sequence of Neurexin-1-beta (Rattus norvegicus (Rat)), Q63373-3 N103A (Q63373 other isoform, or with tags, fused parts or gaps N103A): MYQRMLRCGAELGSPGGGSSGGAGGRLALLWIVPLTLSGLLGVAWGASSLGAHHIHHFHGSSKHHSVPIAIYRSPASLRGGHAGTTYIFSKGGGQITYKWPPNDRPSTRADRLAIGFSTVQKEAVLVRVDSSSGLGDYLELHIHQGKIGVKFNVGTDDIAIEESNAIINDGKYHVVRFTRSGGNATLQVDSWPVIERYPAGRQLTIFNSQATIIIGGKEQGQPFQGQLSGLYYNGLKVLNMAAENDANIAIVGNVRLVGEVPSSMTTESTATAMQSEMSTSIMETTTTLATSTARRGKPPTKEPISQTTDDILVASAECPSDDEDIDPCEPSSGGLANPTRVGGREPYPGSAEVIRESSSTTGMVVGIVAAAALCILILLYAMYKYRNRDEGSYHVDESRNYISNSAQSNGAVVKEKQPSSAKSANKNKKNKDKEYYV
Sequence of Neurexin-1-beta (Rattus norvegicus (Rat)), Q63373-3 I206A (Q63373 other isoform, or with tags, fused parts or gaps I206A): as the sequence (Q63373 other isoform, or with tags, fused parts or gaps N103A) above
Sequence of Neurexin-1-beta (Rattus norvegicus (Rat)), Q63373-3 R202A (Q63373 other isoform, or with tags, fused parts or gaps R202A): as the sequence (Q63373 other isoform, or with tags, fused parts or gaps N103A) above
Sequence of Neurexin-1-beta (Rattus norvegicus (Rat)), Q63373-3 R109A (Q63373 other isoform, or with tags, fused parts or gaps R109A): as the sequence (Q63373 other isoform, or with tags, fused parts or gaps N103A) above

effect of a mutation on the interaction [1]: disrupting interaction
effect of a mutation on the interaction [2]: disrupting interaction
Substance: Neurexin-1-beta (Rattus norvegicus (Rat)), Q63373-3 I206A

effect of a mutation on the interaction [3]: decreasing interaction
effect of a mutation on the interaction [4]: decreasing interaction
Substance: Neurexin-1-beta (Rattus norvegicus (Rat)), Q63373-3 N103A

effect of a mutation on the interaction [5]: decreasing interaction
effect of a mutation on the interaction [6]: disrupting interaction
Substance: Neurexin-1-beta (Rattus norvegicus (Rat)), Q63373-3 R109A

effect of a mutation on the interaction [7]: decreasing interaction
effect of a mutation on the interaction [8]: disrupting interaction
Substance: Neurexin-1-beta (Rattus norvegicus (Rat)), Q63373-3 R202A
